{
  "source": "paper PMC3787792",
  "test_in_all_cases": "SEC + other: SDS-PAGE",
  "key": {"[1]": {"target": "IgG1-Fc variant T437I (soluble) (human)"}, "[2]": {"target": "IgG1-Fc variant K392R (soluble) (human)"}, "[3]": {"target": "IgG1-Fc variant Q347E (soluble) (human)"}, "[4]": {"target": "IgG1-Fc variant K360E (soluble) (human)"}, "[5]": {"target": "IgG1-Fc variant Q418L (soluble) (human)"}, "[6]": {"target": "IgG1-Fc variant K360Q (soluble) (human)"}, "[7]": {"target": "IgG1-Fc variant Q438R (soluble) (human)"}, "[8]": {"target": "IgG1-Fc variant S424T (soluble) (human)"}, "[9]": {"target": "IgG1-Fc variant N421D (soluble) (human)"}, "[10]": {"target": "IgG1-Fc variant Q438K (soluble) (human)"}, "[11]": {"target": "IgG1-Fc variant S400F (soluble) (human)"}, "[12]": {"target": "IgG1-Fc variant S354P (soluble) (human)"}},
  "data": [
    {"substance": "IgG1-Fc variant T437I (soluble) (domain or fragment)", "values": [
      {"measurement": "stoichiometry N", "setting": "[1]", "result": 2}
    ]},
    {"substance": "IgG1-Fc variant K392R (soluble) (domain or fragment)", "values": [
      {"measurement": "stoichiometry N", "setting": "[2]", "result": 2}
    ]},
    {"substance": "IgG1-Fc variant Q347E (soluble) (domain or fragment)", "values": [
      {"measurement": "stoichiometry N", "setting": "[3]", "result": 2}
    ]},
    {"substance": "IgG1-Fc variant K360E (soluble) (domain or fragment)", "values": [
      {"measurement": "stoichiometry N", "setting": "[4]", "result": 2}
    ]},
    {"substance": "IgG1-Fc variant Q418L (soluble) (domain or fragment)", "values": [
      {"measurement": "stoichiometry N", "setting": "[5]", "result": 2}
    ]},
    {"substance": "IgG1-Fc variant K360Q (soluble) (domain or fragment)", "values": [
      {"measurement": "stoichiometry N", "setting": "[6]", "result": 2}
    ]},
    {"substance": "IgG1-Fc variant Q438R (soluble) (domain or fragment)", "values": [
      {"measurement": "stoichiometry N", "setting": "[7]", "result": 2}
    ]},
    {"substance": "IgG1-Fc variant S424T (soluble) (domain or fragment)", "values": [
      {"measurement": "stoichiometry N", "setting": "[8]", "result": 2}
    ]},
    {"substance": "IgG1-Fc variant N421D (soluble) (domain or fragment)", "values": [
      {"measurement": "stoichiometry N", "setting": "[9]", "result": 2}
    ]},
    {"substance": "IgG1-Fc variant Q438K (soluble) (domain or fragment)", "values": [
      {"measurement": "stoichiometry N", "setting": "[10]", "result": 2}
    ]},
    {"substance": "IgG1-Fc variant S400F (soluble) (domain or fragment)", "values": [
      {"measurement": "stoichiometry N", "setting": "[11]", "result": 2}
    ]},
    {"substance": "IgG1-Fc variant S354P (soluble) (domain or fragment)", "values": [
      {"measurement": "stoichiometry N", "setting": "[12]", "result": 2}
    ]}
  ]
}
